According to patent publication US20080170994A1 (ARMAGEN TECHNOLOGIES, published 2008):

Tests used:
Aβ^1-40 amyloid peptide [1] = target: T1, Aβ^1-40 amyloid peptide (human, UniProt P05067 672-711); test: IRMA: competition with [125I]-murine anti-Aβ MAb on plated Aβ^1-40
T1 construct: domain: Aβ^1-40; Plated on 96-well plates in the ELISA and the IRMA; also called Aβ^1-40 peptide; 40 amino acid Aβ amyloid peptide of AD
Method: (§1) FIG. 34. Aβ¹⁻⁴⁰ immunoradiometric assay (IRMA) measures the binding of the [¹²⁵I]-murine anti-Aβ MAb to Aβ¹⁻⁴⁰ that is plated in wells of a 96-well plate. The murine anti-Aβ MAb is the original murine MAb against Aβ purified from hybridoma conditioned medium. In the absence of competitors of binding, approximately 20% of the total [¹²⁵I]-anti-Aβ MAb is bound to the Aβ¹⁻⁴⁰. […] The affinity of the fusion antibody for Aβ¹⁻⁴⁰ is equal to the affinity of the original murine anti-Aβ¹⁻⁴⁰ MAb
(§2) The affinity of the fusion antibody for binding to Aβ¹⁻⁴⁰ was compared to the same affinity of the murine hybridoma generated anti-Aβ MAb with an immunoradiometric assay (IMRA). In this assay, the Aβ¹⁻⁴⁰ is plated in 96-well plates, and the binding of [¹²⁵I]-murine anti-Aβ MAb to the […] is measured. […] Therefore, the affinity of the fusion antibody for Aβ¹⁻⁴⁰ is identical to that of the original 150 kDa hetero-tetrameric murine anti-Aβ MAb. This was a surprising finding, since the affinity of a ScFv for the target antigen is generally much lower than for the full, tetrameric MAb molecule. Owing to the bivalency of the tetrameric MAb, the affinity for the antigen is higher than the affinity of the monomeric ScFv. The high affinity of the ScFv moiety of the fusion antibody for Aβ¹⁻⁴⁰ is attributed to the design of the fusion antibody molecule, which places the ScFv in a dimeric or bivalent conformation (FIG. 26).

[2] = target: T2, human insulin receptor (HIR) extracellular domain (ECD) (human, UniProt P06213 28-956, limits assumed); test: ELISA on affinity purified HIR ECD
T2 construct: extracellular domain; Solid phase antigen of the HIR ELISA; also called HIR ECD; purified human insulin receptor
Method: The affinity of the fusion antibody for binding to the human insulin receptor (HIR) extracellular domain (ECD) was measured with an ELISA using affinity purified HIR ECD obtained from medium conditioned by CHO cells permanently transfected with the HIR ECD gene. […] The 50% saturation of binding, ED₅₀, is 0.53±0.02 nM for the chimeric HIRMAb. The ED₅₀ of fusion antibody binding to the HIR is 1.0±0.1 nM (FIG. 35). […] The HIR at the BBB is an heterotetrameric molecule comprised of two alpha and two beta chains. […] There is specific binding of the [¹²⁵I]-fusion antibody to human brain capillaries in a time-dependent process, whereas binding of the [¹²⁵I]-mouse anti-Aβ antibody is constant with time, and is non-specific (FIG. 36B).

[3] = target: BBB insulin receptor of the Rhesus monkey (Rhesus monkey, UniProt Q28516 1-210); test: cell-based or functional assay
Aβ^1-40 amyloid peptide [4] = target: T1, Aβ^1-40 amyloid peptide; test: IRMA on plated Aβ^1-40
Aβ^1-40 amyloid peptide [5] = target: T1, Aβ^1-40 amyloid peptide; test: IRMA: [125I]-murine anti-Aβ MAb on plated Aβ^1-40, unlabelled antibody as competitor
Method: as §1
as §2, with “The high affinity of the ScFv moiety of the fusion antibody for Aβ¹⁻⁴⁰ is attributed to the design of the fusion antibody molecule, which places the ScFv in a dimeric or bivalent conformation (FIG. 26).” left out

B1: anti-Aβ ScFv/chimeric HIRMAb fusion antibody (bispecific antibody, human IgG1, kappa)
heavy: not shown
light: DIQMTQSPSSLSASLGERVSLTCRASQDIGGNLYWLQQGPDGTIKRLIYATSSLDSGVPKRFSGSRSGSDYSLTISSLESEDFVDYYCLQYSSSPWTFGGGTKMEIKRTVAAPSVFIFPPSDEQLKSGTASVVCLLNNFYPREAKVQWKVDNALQSGNSQESVTEQDSKDSTYSLSSTLTLSKADYEKHKVYACEVTHQGLSSPVTKSFNRGEC
notes: also called fusion protein; HIRMAb-mAβScFv
Kd (Aβ^1-40 amyloid peptide [1]): 0.024 µM
EC50 [2]: 0.001 µM
brain volume of distribution (VD) in Rhesus monkey at 3 hours after intravenous injection [3]: > 10 fold

B2: Ala-499 form of the antibody fusion protein (S499A) (bispecific antibody, human IgG1, kappa)
heavy: not shown
light: DIQMTQSPSSLSASLGERVSLTCRASQDIGGNLYWLQQGPDGTIKRLIYATSSLDSGVPKRFSGSRSGSDYSLTISSLESEDFVDYYCLQYSSSPWTFGGGTKMEIKRTVAAPSVFIFPPSDEQLKSGTASVVCLLNNFYPREAKVQWKVDNALQSGNSQESVTEQDSKDSTYSLSSTLTLSKADYEKHKVYACEVTHQGLSSPVTKSFNRGEC
notes: also called fusion antibody with the S499A mutation
Ki (Aβ^1-40 amyloid peptide [1]): 0.271 µM
fold decrease of affinity against the Ser-499 fusion antibody (Aβ^1-40 amyloid peptide [4]): 8 fold

B3: Ala-497 form of the antibody fusion protein (N497A) (bispecific antibody, human IgG1, kappa)
heavy: not shown
light: DIQMTQSPSSLSASLGERVSLTCRASQDIGGNLYWLQQGPDGTIKRLIYATSSLDSGVPKRFSGSRSGSDYSLTISSLESEDFVDYYCLQYSSSPWTFGGGTKMEIKRTVAAPSVFIFPPSDEQLKSGTASVVCLLNNFYPREAKVQWKVDNALQSGNSQESVTEQDSKDSTYSLSSTLTLSKADYEKHKVYACEVTHQGLSSPVTKSFNRGEC
notes: also called fusion antibody with the N497A mutation
Ki (Aβ^1-40 amyloid peptide [1]): 0.182 µM
fold decrease of affinity against the Asn-497 fusion antibody (Aβ^1-40 amyloid peptide [4]): ~6 fold

B4: chimeric HIRMAb (chimeric monoclonal antibody to the human insulin receptor) (antibody, human IgG1, kappa, V domains shown)
VH: QVQLQQSGPELVKPGALVKISCKASGYTFTNYDIHWVKQRPGQGLEWIGWIYPGDGSTKYNEKFKGKATLTADKSSSTAYMHLSSLTSEKSAVYFCAREWAYWGQGTLVTVSA
VL: DIQMTQSPSSLSASLGERVSLTCRASQDIGGNLYWLQQGPDGTIKRLIYATSSLDSGVPKRFSGSRSGSDYSLTISSLESEDFVDYYCLQYSSSPWTFGGGTKMEIKR
EC50 [2]: 0.00053 µM

B5: murine anti-Aβ MAb (hybridoma generated) (antibody, V domains shown)
VH: QVQLQQSGAELVKPGATVKLSCKASGYSFNSHYIYWVKQRPGQGLEWIGEINPSNGAMNFNEKFKNKATLTVDKSSSTAYMQLSSLTSEDSAVYYCVRDPTSYWGQGTLVTVSA
VL: DVVMTQTPLSLPVSLGDQASISCRSSQSLVHSYGNTYLHWYLQKPGQSPKLLIYKVSNRFSGVPDRFSGSGSGTDFTLKISRVEAEDLGVYFCSQSTHVPYTFGGGTKLEIKR
notes: 150 kDa hetero-tetrameric mouse IgG (gamma heavy chain, kappa light chain) purified from hybridoma medium; also called mouse anti-Aβ MAb; mouse anti-Aβ antibody
Kd (Aβ^1-40 amyloid peptide [5]): 0.032 µM
